The data set concerns T1, Biotin-GDEVDGC biotinylated peptide substrate for caspase-3, coupled to aminated CLIO.
T1 sequence: GDEVDGC

On to Caspase 3, for which the “T2 relaxation time (dispersal of the aggregate after cleavage of the peptide)” value is “When the inhibitor is not added or capase is added, the aggregate is dispersed resulting in an increase of T2”.

(Values after patent US20090029392.)
